Test results as given in IntAct's records for PubMed 26894577.

Biological target: 2aba_human PPP2R2A (UniProt P63151)
Sequence of UniProt P63151 (P63151 whole entry): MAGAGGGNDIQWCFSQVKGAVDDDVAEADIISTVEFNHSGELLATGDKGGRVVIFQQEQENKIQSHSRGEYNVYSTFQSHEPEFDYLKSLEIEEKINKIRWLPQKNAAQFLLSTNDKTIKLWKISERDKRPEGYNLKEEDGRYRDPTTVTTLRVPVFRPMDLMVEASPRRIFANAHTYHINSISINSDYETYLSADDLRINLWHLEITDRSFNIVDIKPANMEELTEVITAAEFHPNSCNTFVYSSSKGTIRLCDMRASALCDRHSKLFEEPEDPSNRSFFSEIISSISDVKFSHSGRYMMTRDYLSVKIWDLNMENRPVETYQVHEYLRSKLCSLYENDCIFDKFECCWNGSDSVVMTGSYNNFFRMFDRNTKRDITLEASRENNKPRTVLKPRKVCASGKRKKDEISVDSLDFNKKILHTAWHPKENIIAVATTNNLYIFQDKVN

effect of a mutation on the interaction: with no effect
Substance: Leucine-rich repeat serine/threonine-protein kinase 2 (Homo sapiens), Q5S007 R1441C
